Source: publication PMC10866687

Molecular target: GFP-tagged Tks5 (GFP-Tks5), in 293T cells
Experiment: coimmunoprecipitation (IP FLAG, immunoblot quantification)
Details: n = 4 experiments, parent: est. 100, read off a plot

Substance	percent of parent [% WT]
FLAG-MAP1B-LC1 (wild type) (from UniProt P46821) K41A; P42A	120
FLAG-MAP1B-LC1 (wild type) (from UniProt P46821) K60A; P61A	78
FLAG-MAP1B-LC1 (wild type) (from UniProt P46821) K95A; P96A	110
FLAG-MAP1B-LC1 (wild type) (from UniProt P46821) P6A; R7A	120
FLAG-MAP1B-LC1 (wild type) (from UniProt P46821) P66A; K67A; P68A	70
FLAG-MAP1B-LC1 (wild type) (from UniProt P46821) P145A; P146A	130
